The numbers were not newly measured in PMC2289845, which cites them from elsewhere.

By Kd is commonly meant the concentration at which binding is half-saturated.

For this series, the target named is KIX KIX (UniProt P45481).
Sequence of UniProt P45481 (P45481 586-665): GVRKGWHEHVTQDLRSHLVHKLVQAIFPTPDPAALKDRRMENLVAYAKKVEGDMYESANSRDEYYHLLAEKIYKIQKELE

For the substance pKID KID (from UniProt P15337), the dissociation constant (Kd) was 1300 nM.
